Assay results reported in publication PMC7912905.

Experiments:
[1] = molecular target: phosphorylated form of RNAP II in both wt MEFs and HeLa cells; assay: FRET or BRET; FLIM-FRET on wt MEFs or HeLa cells transiently transfected with EGFP-SRSF2 (donor), fixed and immunostained for lamin A or RNA polymerase II pS5 (acceptor, secondary antibody Alexa Fluor 594); E ≥ 25% taken as interaction
[2] = molecular target: phosphorylated form of RNA polymerase II (CTD repeat YSPTSPS, phospho S5), in mouse embryonic fibroblasts (mouse (endogenous in MEFs)) (UniProt P08775); assay: FRET or BRET; FLIM-FRET on fixed, immunostained interphase lmna wt cells (MEFs); SC-35 donor (secondary antibody Cy3), RNA polymerase II pS5 acceptor (secondary antibody Cy5); E ≥ 25% taken as interaction
[3] = molecular target: β-catenin (mouse (endogenous in MEFs)) (UniProt Q02248); assay: FRET or BRET; FLIM-FRET on fixed, immunostained mitotic cells with normal A-type lamins (lmna wt MEFs); SC-35 donor (Cy3), β-catenin acceptor (Cy5); E ≥ 25% taken as interaction
Chain of β-catenin (mouse (endogenous in MEFs)) (Q02248 whole entry): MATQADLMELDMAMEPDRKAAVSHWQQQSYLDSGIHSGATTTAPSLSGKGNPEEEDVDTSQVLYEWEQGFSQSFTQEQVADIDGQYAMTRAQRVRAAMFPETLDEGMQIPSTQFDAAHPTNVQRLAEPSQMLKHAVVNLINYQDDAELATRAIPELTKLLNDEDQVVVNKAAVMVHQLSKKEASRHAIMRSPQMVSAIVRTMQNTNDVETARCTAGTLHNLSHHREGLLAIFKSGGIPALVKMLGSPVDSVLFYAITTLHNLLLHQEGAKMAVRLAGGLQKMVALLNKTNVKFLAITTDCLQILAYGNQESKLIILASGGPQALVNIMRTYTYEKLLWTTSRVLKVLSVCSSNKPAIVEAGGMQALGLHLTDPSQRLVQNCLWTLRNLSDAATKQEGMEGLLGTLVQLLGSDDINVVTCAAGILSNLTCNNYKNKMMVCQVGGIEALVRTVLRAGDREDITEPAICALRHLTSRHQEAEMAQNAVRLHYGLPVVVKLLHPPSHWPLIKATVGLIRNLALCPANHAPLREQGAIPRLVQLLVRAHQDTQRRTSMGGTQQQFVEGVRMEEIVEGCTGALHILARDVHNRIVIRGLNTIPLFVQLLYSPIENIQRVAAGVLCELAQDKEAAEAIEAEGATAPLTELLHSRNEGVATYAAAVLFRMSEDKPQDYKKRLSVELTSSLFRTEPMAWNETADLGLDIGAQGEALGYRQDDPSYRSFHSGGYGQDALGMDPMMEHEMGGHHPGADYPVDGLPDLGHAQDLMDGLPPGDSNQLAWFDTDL

Chain of EGFP-tagged SRSF2 (Q01130 whole entry): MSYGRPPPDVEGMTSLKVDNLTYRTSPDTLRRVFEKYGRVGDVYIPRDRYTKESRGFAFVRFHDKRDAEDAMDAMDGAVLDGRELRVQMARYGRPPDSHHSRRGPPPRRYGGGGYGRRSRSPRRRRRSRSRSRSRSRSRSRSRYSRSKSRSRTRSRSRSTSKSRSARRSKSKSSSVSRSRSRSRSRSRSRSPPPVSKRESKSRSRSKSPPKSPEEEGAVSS

| Substance | FRET efficiency [1] [%] | FRET efficiency [2] [%] | FRET efficiency [3] [%] |
| --- | --- | --- | --- |
| EGFP-tagged SRSF2 (from UniProt Q01130 1-221) (natural protein) | 27 to 29 | – | – |
| SC-35 protein (serine/arginine-rich splicing factor 2, encoded by the SRSF2 gene) (from UniProt Q62093 1-221) (natural protein) | – | 75 | 36.5 |
